Values of other authors as cited in PMC10019135.

Molecular target: IL-2Rβ/γc heterodimer (Homo sapiens) (UniProt P14784)
UniProt P14784, sequence (P14784 27-240, chain 1 of 2): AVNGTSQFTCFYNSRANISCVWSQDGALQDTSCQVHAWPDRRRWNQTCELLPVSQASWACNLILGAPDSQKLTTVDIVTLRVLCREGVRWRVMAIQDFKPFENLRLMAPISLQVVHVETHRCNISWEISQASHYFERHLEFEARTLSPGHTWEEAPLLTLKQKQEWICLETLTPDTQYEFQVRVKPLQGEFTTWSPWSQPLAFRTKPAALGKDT
UniProt P14784, sequence (P31785 23-262, chain 2 of 2, further chain): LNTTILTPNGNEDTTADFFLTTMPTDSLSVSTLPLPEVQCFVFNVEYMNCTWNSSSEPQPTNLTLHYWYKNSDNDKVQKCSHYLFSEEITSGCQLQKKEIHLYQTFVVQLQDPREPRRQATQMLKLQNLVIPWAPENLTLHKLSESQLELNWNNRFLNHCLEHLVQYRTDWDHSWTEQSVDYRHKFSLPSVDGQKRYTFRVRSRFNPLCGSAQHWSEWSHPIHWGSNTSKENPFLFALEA

**Q.** Which Kd does the source give for IL-2 (from UniProt P60568) here?
**A.** 1 nM
